Experimental data from patent US20220227845A1.

Biological target: HIV-1 Env of the 208-pseudovirus panel (Table 1)
Test: cell-based or functional assay

| Binder | IC50 geomean, neutralization of 208-virus panel | virus isolate coverage (neutralization breadth), 208-virus panel |
| --- | --- | --- |
| PentaNAb2.0 ScFv (10E8v4_S100cF-5X-35O22-5X-N6-5X-PGT121-5X-VRC26.25-His) (scFv) scFv: SELTQDPAVSVALKQTVTITCRGDSLRSHYASWYQKKPGQAPVLLFYGKNNRPSGIPDRFSGSASGNRASLTITGAQAEDEADYYCSSRDKSGSRLSVFGGGTKLTVLGGGGSGGGGSGGGGSEVRLVESGGGLVKPGGSLRLSCSASGFDFDNAWMTWVRQPPGKGLEWVGRITGPGEGWSVDYAESVKGRFTISRDNTKNTLYLEMNNVRTEDTGYYFCARTGKYYDFWFGYPPGEEYFQDWGQGTLVIVSSGGGGSGGGGSGGGGSGGGGSGGGGSQSVLTQSASVSGSLGQSVTISCTGPNSVCCSHKSISWYQWPPGRAPTLIIYEDNERAPGISPRFSGYKSYWSAYLTISDLRPEDETTYYCCSYTHNSGCVFGTGTKVSVLGGGGSGGGGSGGGGSQGQLVQSGAELKKPGASVKISCKTSGYRFNFYHINWIRQTAGRGPEWMGWISPYSGDKNLAPAFQDRVIMTTDTEVPVTSFTSTGAAYMEIRNLKFDDTGTYFCAKGLLRDGSSTWLPYLWGQGTLLTVSSGGGGSGGGGSGGGGSGGGGSGGGGSYIHVTQSPSSLSVSIGDRVTINCQTSQGVGSDLHWYQHKPGRAPKLLIHHTSSVEDGVPSRFSGSGFHTSFNLTISDLQADDIATYYCQVLQFFGRGSRLHIKGGGGSGGGGSGGGGSRAHLVQSGTAMKKPGASVRVSCQTSGYTFTAHILFWFRQAPGRGLEWVGWIKPQYGAVNFGGGFRDRVTLTRDVYREIAYMDIRGLKPDDTAVYYCARDRSYGDSSWALDAWGQGTTVVVSAGGGGSGGGGSGGGGSGGGGSGGGGSSDISVAPGETARISCGEKSLGSRAVQWYQHRAGQAPSLIIYNNQDRPSGIPERFSGSPDSPFGTTATLTITSVEAGDEADYYCHIWDSRVPTKWVFGGGTTLTVLGGGGSGGGGSGGGGSQMQLQESGPGLVKPSETLSLTCSVSGASISDSYWSWIRRSPGKGLEWIGYVHKSGDTNYSPSLKSRVNLSLDTSKNQVSLSLVAATAADSGKYYCARTLHGRRIYGIVAFNEWFTYFYMDVWGNGTQVTVSSGGGGSGGGGSGGGGSGGGGSGGGGSQSVLTQPPSVSAAPGQKVTISCSGNTSNIGNNFVSWYQQRPGRAPQLLIYETDKRPSGIPDRFSASKSGTSGTLAITGLQTGDEADYYCATWAASLSSARVFGTGTKVIVLVGGGGSGGGGSGGGGSQVQLVESGGGVVQPGTSLRLSCAASQFRFDGYGMHWVRQAPGKGLEWVASISHDGIKKYHAEKVWGRFTISRDNSKNTLYLQMNSLRPEDTALYYCAKDLREDECEEWWSDYYDFGKQLPCAKSRGGLVGIADNWGQGTMVTVSSGSGHHHHHH | 6 ng/mL | 99.6% |
| 35O22 (antibody, V domains shown) VH: QGQLVQSGAELKKPGASVKISCKTSGYRFNFYHINWIRQTAGRGPEWMGWISPYSGDKNLAPAFQDRVIMTTDTEVPVTSFTSTGAAYMEIRNLKFDDTGTYFCAKGLLRDGSSTWLPYLWGQGTLLTVSS VL: QSVLTQSASVSGSLGQSVTISCTGPNSVCCSHKSISWYQWPPGRAPTLIIYEDNERAPGISPRFSGYKSYWSAYLTISDLRPEDETTYYCCSYTHNSGCVFGTGTKVSVL |  | 45.2% |
